Results from paper PMC4138323 (RNA, 2014).
One block for each binder: values may come before it.

B2: GST–CNOT1_(1088–1312) (domain or fragment)
chain: ENIQEKIAFIFNNLSQSNMTQKVEELKETVKEEFMPWVSQYLVMKRVSIEPNFHSLYSNFLDTLKNPEFNKMVLNETYRNIKVLLTSDKAAANFSDRSLLKNLGHWLGMITLAKNKPILHTDLDVKSLLLEAYVKGQQELLYVVPFVAKVLESSIRSVVFRPPNPWTMAIMNVLAELHQEHDLKLNLKFEIEVLCKNLALDINELKPGNLLKDKDRLKNLDEQLS
B3: maltose-binding protein (MBP)-tagged full-length human DDX6 (natural protein)
chain: MSTARTENPVIMGLSSQNGQLRGPVKPTGGPGGGGTQTQQQMNQLKNTNTINNGTQQQAQSMTTTIKPGDDWKKTLKLPPKDLRIKTSDVTSTKGNEFEDYCLKRELLMGIFEMGWEKPSPIQEESIPIALSGRDILARAKNGTGKSGAYLIPLLERLDLKKDNIQAMVIVPTRELALQVSQICIQVSKHMGGAKVMATTGGTNLRDDIMRLDDTVHVVIATPGRILDLIKKGVAKVDHVQMIVLDEADKLLSQDFVQIMEDIILTLPKNRQILLYSATFPLSVQKFMNSHLQKPYEINLMEELTLKGVTQYYAYVTERQKVHCLNTLFSRLQINQSIIFCNSSQRVELLAKKISQLGYSCFYIHAKMRQEHRNRVFHDFRNGLCRNLVCTDLFTRGIDIQAVNVVINFDFPKLAETYLHRIGRSGRFGHLGLAINLITYDDRFNLKSIEEQLGTEIKPIPSNIDKSLYVAEYHSEPVEDEKP

Key:
Test in all cases: pull-down
[1] = biological target: B2
[2] = biological target: B3
[3] = biological target: T1, MBP–DDX6 N-term (residues 1–302) (human, UniProt P26196 1-302)
T1 sequence: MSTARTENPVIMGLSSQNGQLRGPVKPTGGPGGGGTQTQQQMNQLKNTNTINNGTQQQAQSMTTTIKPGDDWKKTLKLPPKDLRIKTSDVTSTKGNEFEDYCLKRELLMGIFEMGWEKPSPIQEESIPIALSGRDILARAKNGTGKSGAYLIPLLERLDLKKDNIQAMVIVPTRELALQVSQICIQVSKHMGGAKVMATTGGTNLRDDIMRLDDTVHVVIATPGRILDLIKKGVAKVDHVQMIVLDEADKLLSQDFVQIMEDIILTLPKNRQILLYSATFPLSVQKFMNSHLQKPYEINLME

[4] = biological target: GST–CNOT1_(1075–1575) (human, UniProt A5YKK6-2 1075-1575)
GST–CNOT1_(1075–1575), sequence (A5YKK6 1080-1580): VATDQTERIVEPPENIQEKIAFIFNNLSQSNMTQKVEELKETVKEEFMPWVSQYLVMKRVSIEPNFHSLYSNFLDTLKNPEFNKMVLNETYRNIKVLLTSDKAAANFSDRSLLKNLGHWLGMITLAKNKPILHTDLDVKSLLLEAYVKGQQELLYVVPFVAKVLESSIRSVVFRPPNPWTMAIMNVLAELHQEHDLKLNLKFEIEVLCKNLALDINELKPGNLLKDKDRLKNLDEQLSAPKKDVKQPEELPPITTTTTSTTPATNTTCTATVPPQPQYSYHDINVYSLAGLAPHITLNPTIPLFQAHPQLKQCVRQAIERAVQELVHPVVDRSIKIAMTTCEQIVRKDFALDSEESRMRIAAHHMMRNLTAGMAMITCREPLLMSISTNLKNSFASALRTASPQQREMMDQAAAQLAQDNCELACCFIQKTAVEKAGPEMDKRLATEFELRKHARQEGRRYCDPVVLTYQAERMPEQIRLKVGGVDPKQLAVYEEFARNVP

binding result [1]: binds
B1: MBP–DDX6 C-term (residues 303–483) (domain or fragment)
chain: ELTLKGVTQYYAYVTERQKVHCLNTLFSRLQINQSIIFCNSSQRVELLAKKISQLGYSCFYIHAKMRQEHRNRVFHDFRNGLCRNLVCTDLFTRGIDIQAVNVVINFDFPKLAETYLHRIGRSGRFGHLGLAINLITYDDRFNLKSIEEQLGTEIKPIPSNIDKSLYVAEYHSEPVEDEKP

Binder: B2
binding result [2]: binds
binding result [3]: binds

Binder: B3
binding result [4]: binds
